These results are taken from article PMC5703266.

In this experiment the target is recombinant soluble tissue factor sTF (1–219) (UniProt P13726).
UniProt P13726, sequence (P13726 33-251): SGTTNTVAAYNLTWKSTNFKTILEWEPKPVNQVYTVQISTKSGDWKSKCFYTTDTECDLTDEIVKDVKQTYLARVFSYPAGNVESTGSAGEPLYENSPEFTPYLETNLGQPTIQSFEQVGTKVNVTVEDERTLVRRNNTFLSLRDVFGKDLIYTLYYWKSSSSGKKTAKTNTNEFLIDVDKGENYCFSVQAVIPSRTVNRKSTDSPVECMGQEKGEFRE

In the case of “coagulation factor VIIa (FVIIa) (enzyme)”, the activation of FX in solution, kcat/KM came to 663 M⁻¹ s⁻¹.
